Where a SMILES comes first, the peptide text is derived from it.

The values that follow come from article PMC11509546, “The Antioxidant Effects of Trypsin-Hydrolysate Derived from Abalone Viscera and Fishery By-Products, and the Angiotensin-I Converting Enzyme (ACE) Inhibitory Activity of Its Purified Bioactive Peptides” (Marine Drugs, 2024).

Assay [1] concerns the target T1, Angiotensin-I converting enzyme (ACE) (Homo sapiens, UniProt P12821).
T1 construct: purchased Dojindo Inc., Kumamoto, Japan ACE kit-WST
Briefly: ACE inhibition activity assay (ACE kit-WST, colorimetric). The assay is classed as biochemical. As to conditions: 3-hydroxybutyryl-Gly-Gly-Gly substrate, mean ± SD of triplicate, read-out: ACE Inhibitory Activity IC50 Value (converted). On the procedure: ACE inhibitory activity was determined as previously described. Inhibition was measured using an ACE kit-WST (Dojindo Inc., Kumamoto, Japan), a colorimetric method. Briefly, the inhibitory effect was determined using enzyme activity and the amount of 3-hydroxybutyric acid made from 3-hydroxybutyryl-Gly-Gly-Gly.

Assay [2] deals with Angiotensin-I converting enzyme (UniProt P12821).
Angiotensin-I converting enzyme, sequence (P12821 30-1256): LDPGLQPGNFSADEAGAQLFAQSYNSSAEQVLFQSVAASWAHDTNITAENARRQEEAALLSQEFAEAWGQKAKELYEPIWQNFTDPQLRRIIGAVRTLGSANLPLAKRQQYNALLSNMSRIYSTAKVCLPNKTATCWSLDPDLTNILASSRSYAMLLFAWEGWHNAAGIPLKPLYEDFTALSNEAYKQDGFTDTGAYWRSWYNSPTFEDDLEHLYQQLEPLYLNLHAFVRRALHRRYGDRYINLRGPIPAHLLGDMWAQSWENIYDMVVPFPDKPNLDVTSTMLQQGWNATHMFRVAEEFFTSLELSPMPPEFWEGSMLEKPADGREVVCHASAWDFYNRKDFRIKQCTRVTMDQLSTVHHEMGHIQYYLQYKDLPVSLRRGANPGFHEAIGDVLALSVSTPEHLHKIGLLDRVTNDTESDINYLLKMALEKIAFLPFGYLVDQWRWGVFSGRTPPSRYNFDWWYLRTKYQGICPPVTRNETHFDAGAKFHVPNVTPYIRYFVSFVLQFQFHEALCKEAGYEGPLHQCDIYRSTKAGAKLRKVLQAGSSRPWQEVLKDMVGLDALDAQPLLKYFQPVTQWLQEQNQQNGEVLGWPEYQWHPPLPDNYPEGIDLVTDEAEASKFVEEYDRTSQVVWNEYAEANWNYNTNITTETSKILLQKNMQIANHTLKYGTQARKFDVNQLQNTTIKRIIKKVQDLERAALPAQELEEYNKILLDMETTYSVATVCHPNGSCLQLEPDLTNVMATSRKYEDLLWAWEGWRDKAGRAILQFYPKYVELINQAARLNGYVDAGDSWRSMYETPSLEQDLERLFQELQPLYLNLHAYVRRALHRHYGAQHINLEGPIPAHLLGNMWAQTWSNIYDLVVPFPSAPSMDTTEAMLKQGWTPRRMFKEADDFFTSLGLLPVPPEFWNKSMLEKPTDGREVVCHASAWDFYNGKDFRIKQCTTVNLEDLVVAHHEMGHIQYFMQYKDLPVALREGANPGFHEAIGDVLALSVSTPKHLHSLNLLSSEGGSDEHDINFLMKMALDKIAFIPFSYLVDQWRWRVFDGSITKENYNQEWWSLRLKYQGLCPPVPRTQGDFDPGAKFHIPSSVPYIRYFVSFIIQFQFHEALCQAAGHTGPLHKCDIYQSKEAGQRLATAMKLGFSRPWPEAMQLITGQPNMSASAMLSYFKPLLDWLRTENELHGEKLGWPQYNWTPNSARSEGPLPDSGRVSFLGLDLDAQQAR

T1 sequence (P12821 30-1306, species assumed): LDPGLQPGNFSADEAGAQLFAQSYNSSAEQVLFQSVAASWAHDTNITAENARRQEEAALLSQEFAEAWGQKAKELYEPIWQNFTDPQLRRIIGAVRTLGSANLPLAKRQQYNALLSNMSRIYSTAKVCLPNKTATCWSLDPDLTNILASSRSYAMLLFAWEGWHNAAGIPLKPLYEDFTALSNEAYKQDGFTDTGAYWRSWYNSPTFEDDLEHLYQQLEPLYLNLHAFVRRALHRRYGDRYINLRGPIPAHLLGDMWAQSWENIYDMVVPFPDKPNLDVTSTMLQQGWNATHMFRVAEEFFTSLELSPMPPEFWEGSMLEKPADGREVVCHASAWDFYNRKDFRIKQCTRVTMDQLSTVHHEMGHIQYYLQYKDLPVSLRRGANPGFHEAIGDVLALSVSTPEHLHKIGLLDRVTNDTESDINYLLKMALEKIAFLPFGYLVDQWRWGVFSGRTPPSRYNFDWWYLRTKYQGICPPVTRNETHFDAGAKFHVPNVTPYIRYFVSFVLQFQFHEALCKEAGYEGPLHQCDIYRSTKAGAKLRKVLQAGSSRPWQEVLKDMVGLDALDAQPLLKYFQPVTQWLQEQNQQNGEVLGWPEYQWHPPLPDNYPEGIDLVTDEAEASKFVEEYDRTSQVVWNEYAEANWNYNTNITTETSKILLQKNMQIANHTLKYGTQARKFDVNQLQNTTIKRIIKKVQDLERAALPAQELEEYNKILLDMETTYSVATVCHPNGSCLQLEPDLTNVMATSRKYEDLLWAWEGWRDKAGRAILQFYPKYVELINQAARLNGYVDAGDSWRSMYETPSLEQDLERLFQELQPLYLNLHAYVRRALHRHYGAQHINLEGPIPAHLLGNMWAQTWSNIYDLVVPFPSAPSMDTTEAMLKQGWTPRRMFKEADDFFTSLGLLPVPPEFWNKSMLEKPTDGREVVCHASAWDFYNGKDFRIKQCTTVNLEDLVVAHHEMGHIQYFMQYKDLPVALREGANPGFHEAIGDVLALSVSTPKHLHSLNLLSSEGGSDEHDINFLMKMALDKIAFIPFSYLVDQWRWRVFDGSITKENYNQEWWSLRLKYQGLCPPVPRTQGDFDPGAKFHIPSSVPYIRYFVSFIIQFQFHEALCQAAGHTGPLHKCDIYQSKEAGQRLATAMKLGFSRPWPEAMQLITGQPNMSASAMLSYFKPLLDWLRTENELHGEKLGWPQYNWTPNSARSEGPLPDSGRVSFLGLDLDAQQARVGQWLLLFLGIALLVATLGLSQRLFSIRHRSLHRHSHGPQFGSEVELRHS

Turning to `CC(C)C[C@H](NC(=O)[C@@H](N)CC(N)=O)C(=O)NCC(=O)N[C@@H](CCC(=O)O)C(=O)N[C@@H](Cc1c[nH]c2ccccc12)C(=O)O` [NLGEW] (H-NLGEW-OH), the IC50 in assay [1] is 236 µM.

As for `CC(C)C[C@H](N)C(=O)NCC(=O)N[C@@H](CCC(=O)O)C(=O)N[C@@H](Cc1c[nH]c2ccccc12)C(=O)O` [LGEW] (H-LGEW-OH), the IC50 in assay [1] is 328 µM.

Turning to `CC(C)C[C@H](NC(=O)CNC(=O)[C@@H]1CCCN1C(=O)[C@@H](NC(=O)[C@@H](N)C(C)C)[C@@H](C)O)C(=O)N[C@@H](CCC(N)=O)C(=O)N[C@@H](Cc1ccc(O)cc1)C(=O)O` [VTPGLQY] (H-VTPGLQY-OH), the IC50 in assay [1] was 29.6 µM.

In the case of `CC(C)C[C@H](NC(=O)[C@@H](N)CCC(N)=O)C(=O)N[C@@H](CCC(N)=O)C(=O)N[C@@H](Cc1ccccc1)C(=O)N1CCC[C@H]1C(=O)N[C@H](C(=O)NCC(=O)N[C@@H](CCCNC(=N)N)C(=O)O)C(C)C` [QLQFPVGR] (H-QLQFPVGR-OH), the half-maximal inhibitory concentration (IC50) in assay [1] is 4.24 µM.

Consider `CC(C)C[C@H](N)C(=O)N[C@@H](CC(=O)O)C(=O)N[C@@H](Cc1c[nH]c2ccccc12)C(=O)O` [LDW] (H-Leu-Asp-Trp-OH), for which, in assay [1], the IC50 is > 2310 µM.

On to `CC(C)[C@H](N)C(=O)N[C@@H](C)C(=O)N[C@@H](CCCNC(=N)N)C(=O)O` [VAR] (H-Val-Ala-Arg-OH), for which the IC50 in assay [1] is 302 µM.

On to VAR (peptide), for which the ACE inhibitory activity IC50 (ACE kit-WST, colorimetric enzyme activity assay) in assay [2] came out at 104 µg/mL.

LDW (peptide): in assay [2], the ACE inhibitory activity IC50 (ACE kit-WST, colorimetric enzyme activity assay) was > 1000 µg/mL.

On to `N=C(N)NCCC[C@H](NC(=O)[C@H](CCC(=O)O)NC(=O)[C@H](Cc1ccc(O)cc1)NC(=O)[C@@H](N)CC(N)=O)C(=O)O` [NYER] (H-NYER-OH), for which the IC50 in assay [1] was 184 µM.

Take `CC(C)C[C@H](N)C(=O)NCC(=O)N1CCC[C@H]1C(=O)N[C@@H](Cc1ccc(O)cc1)C(=O)O` [LGPY] (H-LGPY-OH): the IC50 in assay [1] was > 2230 µM.

In assay [2], NYER displayed an ACE inhibitory activity IC50 (ACE kit-WST, colorimetric enzyme activity assay) of 107 µg/mL.

Molecule QLQFPVGR showed an ACE inhibitory activity IC50 (ACE kit-WST, colorimetric enzyme activity assay) in assay [2] of 4 µg/mL.

The molecule NLGEW returned an ACE inhibitory activity IC50 (ACE kit-WST, colorimetric enzyme activity assay) in assay [2] of 146 µg/mL.

The molecule LGEW came in with an ACE inhibitory activity IC50 (ACE kit-WST, colorimetric enzyme activity assay) in assay [2] of 165 µg/mL.

Consider LGPY, for which the ACE inhibitory activity IC50 (ACE kit-WST, colorimetric enzyme activity assay) in assay [2] is > 1000 µg/mL.

On to QFPVGR, for which, in assay [2], the ACE inhibitory activity IC50 (ACE kit-WST, colorimetric enzyme activity assay) is 23 µg/mL.

Molecule VTPGLQY gave an ACE inhibitory activity IC50 (ACE kit-WST, colorimetric enzyme activity assay) in assay [2] of 23 µg/mL.
